Measurements from article PMC6351033.

Molecular target: CXCR3 chemotactic receptor (human (endogenous in PBMC)) (UniProt P49682)
Chain of UniProt P49682 (P49682 whole entry): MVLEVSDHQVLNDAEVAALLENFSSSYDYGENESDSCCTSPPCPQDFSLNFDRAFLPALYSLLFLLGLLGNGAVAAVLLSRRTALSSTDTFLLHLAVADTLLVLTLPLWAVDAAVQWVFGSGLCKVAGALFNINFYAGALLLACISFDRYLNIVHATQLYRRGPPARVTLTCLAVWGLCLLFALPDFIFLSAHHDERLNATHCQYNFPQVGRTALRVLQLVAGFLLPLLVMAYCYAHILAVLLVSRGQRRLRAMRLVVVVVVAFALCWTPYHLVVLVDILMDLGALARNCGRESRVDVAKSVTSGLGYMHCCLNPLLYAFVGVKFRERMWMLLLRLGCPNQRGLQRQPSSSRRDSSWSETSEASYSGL

chemotaxis of PBMC (Boyden chamber, Tag7-Mts1 at 10^-9 M) after preincubation of the cells with antibodies to CXCR3; reduction of migration: < 20%
Substance: Tag7-Mts1 complex (from UniProt O75594 22-196; P26447 1-101)
